Values quoted from earlier work as cited in publication PMC3907174.

Target: RBP (Homo sapiens) (UniProt P02753)

Kd: 50 nM
Substance: STRA6 (from UniProt Q9BX79)
